Entries after “also recorded” stand apart in the source; their conditions may differ. Where two headings read alike, the source gives them in different places. Marks after values point to notes of the source that are not given here.
Assays:
[1] = Rat renal blood flow studies; assay type: in vivo, Sprague Dawley rats; conditions: 1 mg/kg intravenously
Method: Male Sprague Dawley rats (˜250-300 g) were anesthetized with sodium pentobarbital (50 mg/kg), the trachea was cannulated with PE-205 tubing to maintain airway patency, and temperature was maintained at 37° C. with a heated surgical plate. A 1.4 F pressure catheter (Millar Inc., Houston, TX) was advanced into the right carotid artery to measure aortic blood pressure. The right jugular vein was cannulated with PE-50 tubing for administration of test articles. The left kidney was exposed by a retroperitoneal incision, and a Doppler flow probe (Model 0.5 VB, Transonic System Inc., Ithaca, NY) was attached to the left renal artery to monitor blood flow. Sodium pentobarbital (15 mg/kg, intraperitoneal) was supplemented after completion of these surgical procedures. Following a 10-15 min equilibration, the relaxin was administered at 1 mg/kg intravenously in a dosing volume of 0.15 to 1.82 mL/kg over 30 seconds via an infusion pump (Harvard Apparatus, Holliston, MA). Blood pressure, heart rate and renal blood flow were continuously recorded for 45 min after relaxin administration using a Millar MPVS Ultra Signal Conditioning unit connected to a desktop computer running LabChart 7-Pro data acquisition software (ADInstruments, Dunedin, New Zealand) (Table 5). Table 5. Rat renal blood flow changes (abbreviations as in Table 3).

[2] = In vivo pharmacokinetic (PK) studies in rats; parameters: species or system Sprague-Dawley rats; conditions: rat, male Sprague-Dawley rats, single SC dose 1.0 mg/kg, serum ELISA; for AUC(0-inf): read-out: Rat PK AUC Total; for level at time molar at 24 h: read-out: Rat PK C24
Summary of the method: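 Male Sprague-Dawley rats (n=3) given a single 1 mg/kg IV or SC dose of relaxin constructs in 20 mM histidine, 750 mM NaCl, pH 6.0; jugular serum sampled to 72 h. Serum relaxin by ELISA; Cmax, AUCinf, C24 and half-life from non-compartmental analysis of individual profiles.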

human RXFP1 receptor = target: T1, human RXFP1 receptor (Homo sapiens, UniProt Q9HBX9); assay: Intracellular cAMP accumulation assay; assay type: cell-based
T1 construct: expressed in transfected cells
T1 sequence (Q9HBX9 1-757): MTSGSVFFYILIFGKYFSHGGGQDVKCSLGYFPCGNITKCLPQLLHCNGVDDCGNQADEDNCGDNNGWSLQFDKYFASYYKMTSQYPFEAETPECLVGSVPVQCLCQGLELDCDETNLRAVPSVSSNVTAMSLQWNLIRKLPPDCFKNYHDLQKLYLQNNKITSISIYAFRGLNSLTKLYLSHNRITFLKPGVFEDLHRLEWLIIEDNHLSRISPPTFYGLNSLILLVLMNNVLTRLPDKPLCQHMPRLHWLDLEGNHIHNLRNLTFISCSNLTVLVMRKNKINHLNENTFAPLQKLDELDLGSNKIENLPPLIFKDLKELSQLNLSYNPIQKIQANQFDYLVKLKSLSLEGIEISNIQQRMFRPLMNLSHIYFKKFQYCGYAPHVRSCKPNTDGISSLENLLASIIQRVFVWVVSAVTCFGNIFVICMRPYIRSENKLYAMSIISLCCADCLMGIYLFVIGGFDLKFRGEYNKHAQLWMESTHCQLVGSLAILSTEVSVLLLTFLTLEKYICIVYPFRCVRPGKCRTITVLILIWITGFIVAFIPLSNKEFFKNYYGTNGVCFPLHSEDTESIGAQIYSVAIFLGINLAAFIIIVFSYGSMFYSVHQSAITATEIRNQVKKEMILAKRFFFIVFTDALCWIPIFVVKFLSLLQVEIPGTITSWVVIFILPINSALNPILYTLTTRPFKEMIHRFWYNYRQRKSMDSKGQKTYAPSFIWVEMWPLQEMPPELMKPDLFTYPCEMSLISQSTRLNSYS
Method: The intracellular cAMP accumulation assay described herein was used to assess relaxin bioactivity and potency.
CHO-K1 cells (ATCC; Cat. #CRL-9618) stably expressing the human RXFP1 receptor (locus number LOC59350) (10,000/well) were plated into 96-well plates and cultured overnight at 37° C. and 5% CO2. On the following day, the medium was removed from the wells and the cells were stimulated with the addition of ligand (relaxin polypeptide) in 50 uL buffer (1×HBSS, 5 mM HEPES (7.2), 0.5 mM IBMX, 0.1% BSA); incubation was for 10 min at 37° C. Unstimulated cells were utilized as reference controls. Reactions were terminated and cellular cAMP levels were measured using the Homogeneous Time Resolved Fluorescence (HTRF) Dynamic 2 cAMP kit (CisBio, #62AM4PEC) according to the manufacturer's protocol. Plates were analyzed using an EnVision 2104 Multilablel Reader (PerkinElmer). Signal was expressed in terms of the ratio of fluorescence intensity @ 665 nm/fluorescence intensity @620 nm×10,000. The concentration of cAMP in the sample was determined by comparison with standard curves generated from known concentrations of cAMP. The potency of each relaxin was determined using a ten-point concentration response curves which was performed in duplicate. The data were analyzed using Microsoft Excel, Version 2013 Xlfit software. Effective concentration 50 (EC50) values, the point at which the response was one-half maximal, were calculated using a four-parameter logistic equation that allowed for a variable-slope (Table 3).

SMILES	% change in RBF over baseline ([1]; anesthetized male Sprague Dawley rats, renal blood flow recorded for 45 min)	effect on renal blood flow (in words) ([1]; rats, 1 mg/kg)	AUC(0-inf) [2]	level at time molar at 24 h [2]	EC50 (human RXFP1 receptor)	EC50 (human RXFP1 receptor; CHO-K1 cells stably expressing human RXFP1, 10 min at 37° C., HTRF cAMP, average, read-out: hRXFP1/CHO-K1 cAMP EC50 (nM, avg))
CCCCCCCCCCCCCC(=O)N[C@@H](CCC(=O)NCCO/N=C(\C)c1ccc(C[C@H](N)C(=O)N[C@@H](CC(C)C)C(=O)N[C@@H](Cc2ccc(O)cc2)C(=O)N[C@@H](CO)C(=O)N[C@@H](C)C(=O)N[C@@H](CC(C)C)C(=O)N[C@@H](C)C(=O)N[C@@H](CC(N)=O)C(=O)N[C@@H](CCCCN)C(=O)N[C@H]2CSSC[C@@H]3NC(=O)CNC(=O)[C@H](C(C)C)NC(=O)[C@H](Cc4c[nH]cn4)NC(=O)[C@H](CSSC[C@H](NC(=O)[C@H](CC(C)C)NC(=O)[C@H](CCCCN)NC(=O)[C@@H](NC(=O)[C@@H](NC(=O)[C@H](CCC(=O)O)NC(=O)[C@H](CCC(=O)O)NC(=O)[C@H](CCSC)NC(=O)[C@H](Cc4c[nH]c5ccccc45)NC(=O)[C@H](CO)NC(=O)[C@H](C)N)C(C)C)[C@@H](C)CC)C(=O)NCC(=O)N[C@@H](CCCNC(=N)N)C(=O)N[C@@H](CCC(=O)O)C(=O)N[C@@H](CC(C)C)C(=O)N[C@@H](C(C)C)C(=O)N[C@@H](CCCNC(=N)N)C(=O)N[C@@H](C)C(=O)N[C@@H](CCC(N)=O)C(=O)N[C@@H]([C@@H](C)CC)C(=O)N[C@@H](C)C(=O)N[C@@H]([C@@H](C)CC)C(=O)N[C@H](C(=O)NCC(=O)N[C@@H](CCSC)C(=O)N[C@@H](CO)C(=O)N[C@H](C(=O)N[C@@H](Cc4c[nH]c5ccccc45)C(=O)N[C@@H](CO)C(=O)O)[C@@H](C)O)CSSC[C@@H](C(=O)O)NC(=O)[C@H](Cc4ccccc4)NC(=O)[C@H](CCCNC(=N)N)NC(=O)[C@H](C)NC(=O)[C@H](CC(C)C)NC(=O)[C@H](CO)NC(=O)[C@H](CCCNC(=N)N)NC(=O)[C@H](CCCCN)NC(=O)[C@H]([C@@H](C)O)NC3=O)NC2=O)cc1)C(=O)O [AQ1-Glu-C13-CH3]	−27^b %	impaired renal blood flow; also recorded: decreased renal blood flow				
CC[C@H](C)[C@@H]1NC(=O)[C@H](C)NC(=O)[C@H]([C@@H](C)CC)NC(=O)[C@H](CCC(N)=O)NC(=O)[C@H](C)NC(=O)[C@H](CCCNC(=N)N)NC(=O)[C@H](C(C)C)NC(=O)[C@H](CC(C)C)NC(=O)[C@H](CCC(=O)O)NC(=O)[C@H](CCCNC(=N)N)NC(=O)CNC(=O)[C@@H](NC(=O)[C@H](CC(C)C)NC(=O)[C@H](CCCCN)NC(=O)[C@@H](NC(=O)[C@@H](NC(=O)[C@H](CCC(=O)O)NC(=O)[C@H](CCC(=O)O)NC(=O)[C@H](CCSC)NC(=O)[C@H](Cc2c[nH]c3ccccc23)NC(=O)[C@H](CO)NC(=O)[C@H](C)N)C(C)C)[C@@H](C)CC)CSSC[C@@H]2NC(=O)[C@@H](NC(=O)[C@H](CCCCN)NC(=O)[C@H](CC(N)=O)NC(=O)[C@H](C)NC(=O)[C@H](CC(C)C)NC(=O)[C@H](C)NC(=O)[C@H](CO)NC(=O)[C@H](Cc3ccc(O)cc3)NC(=O)[C@H](CC(C)C)NC(=O)[C@@H](N)Cc3ccc(C(C)=NOCCNC(=O)[C@H](CCCCN)NC(=O)[C@H](CCCCN)NC(=O)[C@H](CO)NC(=O)CNC(=O)CNC(=O)[C@H](CO)NC(=O)CNC(=O)CNC(=O)[C@H](CCC(=O)O)NC(=O)[C@H](CCC(=O)O)NC(=O)CC[C@H](NC(=O)CCCCCCCCCCCCC(=O)O)C(=O)O)cc3)CSSC[C@H](NC(=O)CNC(=O)[C@H](C(C)C)NC(=O)[C@H](Cc3c[nH]cn3)NC2=O)C(=O)N[C@@H]([C@@H](C)O)C(=O)N[C@@H](CCCCN)C(=O)N[C@@H](CCCNC(=N)N)C(=O)N[C@@H](CO)C(=O)N[C@@H](CC(C)C)C(=O)N[C@@H](C)C(=O)N[C@@H](CCCNC(=N)N)C(=O)N[C@@H](Cc2ccccc2)C(=O)N[C@H](C(=O)O)CSSC[C@@H](C(=O)NCC(=O)N[C@@H](CCSC)C(=O)N[C@@H](CO)C(=O)N[C@H](C(=O)N[C@@H](Cc2c[nH]c3ccccc23)C(=O)N[C@@H](CO)C(=O)O)[C@@H](C)O)NC1=O [AQ1-KKSGGSGGEE-Glu^γ-C13-COOH]			0.676 µM·h	0.09 nM	0.16 nM	
CC[C@H](C)[C@@H]1NC(=O)[C@H](C)NC(=O)[C@H]([C@@H](C)CC)NC(=O)[C@H](CCC(N)=O)NC(=O)[C@H](C)NC(=O)[C@H](CCCNC(=N)N)NC(=O)[C@H](C(C)C)NC(=O)[C@H](CC(C)C)NC(=O)[C@H](CCC(=O)O)NC(=O)[C@H](CCCNC(=N)N)NC(=O)CNC(=O)[C@@H](NC(=O)[C@H](CC(C)C)NC(=O)[C@H](CCCCN)NC(=O)[C@@H](NC(=O)[C@@H](NC(=O)[C@H](CCC(=O)O)NC(=O)[C@H](CCC(=O)O)NC(=O)[C@H](CCSC)NC(=O)[C@H](Cc2c[nH]c3ccccc23)NC(=O)[C@H](CO)NC(=O)[C@H](C)N)C(C)C)[C@@H](C)CC)CSSC[C@@H]2NC(=O)[C@@H](NC(=O)[C@H](CCCCN)NC(=O)[C@H](CC(N)=O)NC(=O)[C@H](C)NC(=O)[C@H](CC(C)C)NC(=O)[C@H](C)NC(=O)[C@H](CO)NC(=O)[C@H](Cc3ccc(O)cc3)NC(=O)[C@H](CC(C)C)NC(=O)[C@@H](N)Cc3ccc(C(C)=NOCCNC(=O)[C@H](CCCNC(=N)N)NC(=O)CNC(=O)CNC(=O)[C@H](CCC(=O)O)NC(=O)[C@H](CCC(=O)O)NC(=O)[C@H](CCCCN)NC(=O)[C@H](CCCCN)NC(=O)[C@H](CCCCN)NC(=O)[C@H](CCC(=O)O)NC(=O)[C@H](CCCCN)NC(=O)[C@H](CCC(=O)O)NC(=O)[C@H](CCCCN)NC(=O)CC[C@H](NC(=O)CCCCCCCCCCCCC(=O)O)C(=O)O)cc3)CSSC[C@H](NC(=O)CNC(=O)[C@H](C(C)C)NC(=O)[C@H](Cc3c[nH]cn3)NC2=O)C(=O)N[C@@H]([C@@H](C)O)C(=O)N[C@@H](CCCCN)C(=O)N[C@@H](CCCNC(=N)N)C(=O)N[C@@H](CO)C(=O)N[C@@H](CC(C)C)C(=O)N[C@@H](C)C(=O)N[C@@H](CCCNC(=N)N)C(=O)N[C@@H](Cc2ccccc2)C(=O)N[C@H](C(=O)O)CSSC[C@@H](C(=O)NCC(=O)N[C@@H](CCSC)C(=O)N[C@@H](CO)C(=O)N[C@H](C(=O)N[C@@H](Cc2c[nH]c3ccccc23)C(=O)N[C@@H](CO)C(=O)O)[C@@H](C)O)NC1=O [AQ1-RGGEEKKKEKEK-Glu^γ-C13-COOH]			0.987 µM·h	0.1 nM		0.29 nM
CC[C@H](C)[C@@H]1NC(=O)[C@H](C)NC(=O)[C@H]([C@@H](C)CC)NC(=O)[C@H](CCC(N)=O)NC(=O)[C@H](C)NC(=O)[C@H](CCCNC(=N)N)NC(=O)[C@H](C(C)C)NC(=O)[C@H](CC(C)C)NC(=O)[C@H](CCC(=O)O)NC(=O)[C@H](CCCNC(=N)N)NC(=O)CNC(=O)[C@@H](NC(=O)[C@H](CC(C)C)NC(=O)[C@H](CCCCN)NC(=O)[C@@H](NC(=O)[C@@H](NC(=O)[C@H](CCC(=O)O)NC(=O)[C@H](CCC(=O)O)NC(=O)[C@H](CCSC)NC(=O)[C@H](Cc2c[nH]c3ccccc23)NC(=O)[C@H](CO)NC(=O)[C@H](C)N)C(C)C)[C@@H](C)CC)CSSC[C@@H]2NC(=O)[C@@H](NC(=O)[C@H](CCCCN)NC(=O)[C@H](CC(N)=O)NC(=O)[C@H](C)NC(=O)[C@H](CC(C)C)NC(=O)[C@H](C)NC(=O)[C@H](CO)NC(=O)[C@H](Cc3ccc(O)cc3)NC(=O)[C@H](CC(C)C)NC(=O)[C@@H](N)Cc3ccc(C(C)=NOCCNC(=O)[C@@H](CCCCN)NC(=O)[C@@H](CCCCN)NC(=O)[C@@H](CCCCN)NC(=O)[C@@H](CCCCN)NC(=O)[C@@H](CCCCN)NC(=O)[C@@H](CCCCN)NC(=O)CC[C@H](NC(=O)CCCCCCCCCCCCC(=O)O)C(=O)O)cc3)CSSC[C@H](NC(=O)CNC(=O)[C@H](C(C)C)NC(=O)[C@H](Cc3c[nH]cn3)NC2=O)C(=O)N[C@@H]([C@@H](C)O)C(=O)N[C@@H](CCCCN)C(=O)N[C@@H](CCCNC(=N)N)C(=O)N[C@@H](CO)C(=O)N[C@@H](CC(C)C)C(=O)N[C@@H](C)C(=O)N[C@@H](CCCNC(=N)N)C(=O)N[C@@H](Cc2ccccc2)C(=O)N[C@H](C(=O)O)CSSC[C@@H](C(=O)NCC(=O)N[C@@H](CCSC)C(=O)N[C@@H](CO)C(=O)N[C@H](C(=O)N[C@@H](Cc2c[nH]c3ccccc23)C(=O)N[C@@H](CO)C(=O)O)[C@@H](C)O)NC1=O [AQ1-dKdKdKdKdKdK-Glu^γ-C13-COOH]			0.0312 µM·h	0.06 nM	0.1 nM	

Reference: patent US12097241B2, “Methods of treating kidney failure, and/or improving or stablizing renal function using modified relaxin polypeptides” (BRISTOL-MYERS SQUIBB COMPANY, priority 2017, dated 2024)
